# Assay results published in publication PMC7704052.
# Target: Flag-tagged MxA wildtype (human myxovirus resistance protein A) (human) (UniProt P20591)
substance,measurement,value
"SiAr126 nucleoprotein (NP), wildtype, from expression plasmid (natural protein)",SiAr126 polymerase reconstitution (minigenome firefly luciferase) in 293T cells: inhibition by co-expressed MxA compared with the inactive MxA(T103A),90%
